Test results: article PMC10092196 (Human Mutation, 2022)
Substitutions are numbered along the chain they refer to. In names and notes the source's numbering stands.

What was measured:
SEC = target: the molecule itself; experiment: SEC
[1] = target: the molecule itself; experiment: SEC with right-angle light scattering

B1: full-length wild-type human PUS3 protein (pseudouridine synthase 3) (enzyme, UniProt Q9BZE2 1-481, looked up)
chain: MAYNDTDRNQTEKLLKRVRELEQEVQRLKKEQAKNKEDSNIRENSAGAGKTKRAFDFSAHGRRHVALRIAYMGWGYQGFASQENTNNTIEEKLFEALTKTRLVESRQTSNYHRCGRTDKGVSAFGQVISLDLRSQFPRGRDSEDFNVKEEANAAAEEIRYTHILNRVLPPDIRILAWAPVEPSFSARFSCLERTYRYFFPRADLDIVTMDYAAQKYVGTHDFRNLCKMDVANGVINFQRTILSAQVQLVGQSPGEGRWQEPFQLCQFEVTGQAFLYHQVRCMMAILFLIGQGMEKPEIIDELLNIEKNPQKPQYSMAVEFPLVLYDCKFENVKWIYDQEAQEFNITHLQQLWANHAVKTHMLYSMLQGLDTVPVPCGIGPKMDGMTEWGNVKPSVIKQTSAFVEGVKMRTYKPLMDRPKCQGLESRIQHFVRRGRIEHPHLFHEEETKAKRDCNDTLEEENTNLETPTKRVCVDTEIKSII
SEC
  stoichiometry N: 2

B2: full-length human PUS3 D118A mutant (catalytic site) (enzyme, UniProt Q9BZE2 1-481, looked up)
chain: B1 chain with D118A
SEC
  binding result: binds

B3: full-length human PUS3 Y71C mutant (enzyme, UniProt Q9BZE2 1-481, looked up)
chain: B1 chain with Y71C
[1]
  stoichiometry N: 2
